In patent US20030118546A1 (Human Genome Sciences, published 2003):

Target: T1, TNFα (tumor necrosis factor alpha), soluble (UniProt P01375 77-233)
T1 construct: also called TNFa; TNF-alpha
Experiment: co-precipitation with protein G-Sepharose, immunoblot with anti-Flag or anti-myc-HRP
Text: The respective Fc-fusions were precipitated with protein G-Sepharose and co-precipitated soluble ligands were detected by immunoblotting with anti-Flag (Babco) or anti-myc-HRP (BMB).

T1 sequence (P01375 77-233 limits assumed): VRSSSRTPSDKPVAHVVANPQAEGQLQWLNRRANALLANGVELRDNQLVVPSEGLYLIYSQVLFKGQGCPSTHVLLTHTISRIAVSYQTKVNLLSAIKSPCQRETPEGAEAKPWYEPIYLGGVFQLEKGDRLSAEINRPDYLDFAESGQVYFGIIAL

B1: TRID-Fc (soluble extracellular ligand binding domain of TRID fused to the Fc portion of human immunoglobulin (IgG)) (Fc fusion)
chain: TTARQEEVPQQTVAPQQQRHSFKGEECPAGSHRSEHTGACNPCTEGVDYTNASNNEPSCFPCTVCKSDQKHKSSCTMTRDTVCQCKEGTFRNENSPEMCRKCSRCPSGEVQVSNCTSWDDIQCVEEFGANATVETPAAEETMNTSPGTPAPAAEETMNTSPGTPAPAAEETMTTSPGTPAPAAEETMTTSPGTPAPAAEETMTTSPGTPASSHY
notes: The extracellular domain is only predicted ('about 27 to about 240'); preparation is said to follow Pan et al., Science 276:111 (1997); also called Fc-extracellular domain of TRID; TNFR-5; not shown: Fc portion of human immunoglobulin (IgG)
B1: no binding.
